Biological target: Soluble human VCAM-1 IgG fusion protein (immobilized on coverslips) (human) (UniProt P19320)
Experiment: cell-based or functional assay

Sequence of UniProt P19320 (P19320 25-698 limits assumed): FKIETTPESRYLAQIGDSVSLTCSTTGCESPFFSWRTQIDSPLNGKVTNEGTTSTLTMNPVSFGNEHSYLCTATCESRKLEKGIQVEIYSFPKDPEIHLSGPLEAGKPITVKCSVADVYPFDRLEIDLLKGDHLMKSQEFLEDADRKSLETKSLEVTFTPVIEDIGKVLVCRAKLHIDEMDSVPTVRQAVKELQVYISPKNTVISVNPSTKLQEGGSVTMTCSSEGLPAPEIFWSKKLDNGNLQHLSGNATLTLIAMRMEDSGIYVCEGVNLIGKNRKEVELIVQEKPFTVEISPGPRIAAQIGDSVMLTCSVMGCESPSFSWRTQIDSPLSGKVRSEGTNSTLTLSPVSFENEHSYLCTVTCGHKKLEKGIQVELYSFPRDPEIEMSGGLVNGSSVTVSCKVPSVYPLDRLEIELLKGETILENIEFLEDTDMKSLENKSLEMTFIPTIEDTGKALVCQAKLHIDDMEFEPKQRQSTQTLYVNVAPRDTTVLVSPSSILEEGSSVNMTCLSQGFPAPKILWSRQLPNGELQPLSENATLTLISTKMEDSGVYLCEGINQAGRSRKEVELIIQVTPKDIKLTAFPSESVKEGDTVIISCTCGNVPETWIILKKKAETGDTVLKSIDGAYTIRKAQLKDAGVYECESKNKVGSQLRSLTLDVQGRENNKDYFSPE

- memory CD4+ T cell accumulation on immobilized VCAM-1 under flow; inhibition by pretreatment with CKβ-13: 42 to 72%
Substance: VLA-4 integrin (on CD4+ naive and memory T cells) (from UniProt P13612 34-1032; P05556 21-798) (receptor)
